Data set [1] in a line: Kinetics of disulfide formation, oxidation by air (Ellman's assay). It is filed as physicochemical. The note with it: 12 mM in water, capped tubes, room temperature, after 5 days. Here is the method:
For oxidation by air, LK6C dissolved in water at 12 mM was left in capped micro-centrifuge tubes at room temperature. […] H2O2-assisted oxidation was much more efficient in the formation of disulfide bridges.
(§1) For air oxidation, LK6C was dissolved in MilliQ water by vigorous vortexing for five minutes and dispensed into 20 μL aliquots. At appropriate time points, 180 μL of DTNB (Sigma, Singapore) working solution (4 mg/mL in 0.1M phosphate buffer pH 7.0) was mixed with the peptide solution for 15 minutes. Absorbance at 412 nm was then measured (InfiniteM200, Tecan, Switzerland). Using a calibration curve generated with L-cysteine (Sigma) as standard (R^2=0.999), the background-subtracted value was normalised to the reading at 0 hour to give the % of thiol remaining. For H2O2-assisted oxidation, LK6C was dissolved in water (HPLC grade, J. T. Baker, N.J., USA) containing 0.06% H2O2 (Merck, Sinagpore) and dispensed into aliquots. At appropriate time points, the aliquots were analysed using an Aquity® UPLC (Waters, USA) fitted with a single-quadrupole MS. Using a calibration curve generated with pure LK6C as standard (R^2=0.999), the area under the peak corresponding to LK6C monomer was normalised to that at 0 hour to give the % of thiol remaining.
Background: DTNB colorimetry detects thiols as they appear.

The nature of data set [2]: Kinetics of disulfide formation, H2O2-assisted oxidation (UPLC). It is filed as physicochemical. The note with it: 12 mM in water containing 0.06% H2O2, after 1 day. On the procedure:
Only ˜50% of thiols remained after 1 day. The R^2 value of the thiol calibration curve was 1.000.
as §1

The subject of a further data set is skins of guinea pigs. Kind of data set: Direct contact Kligman maximization test (GLP, ISO 10993-10). It counts as in vivo. Particulars: GLP study by CRO Toxikon.
For a further data set, the system named is V79. Kind of data set: Direct contact V79 colony assay (GLP). It is filed as cell-based. The note with it: GLP study by CRO Toxikon.
Data set [3] is described as follows: Oscillation rheology of cysteine-containing peptide gels (stiffness G', LVE limit). It is filed as physicochemical. The text has this: Oscillatory rheology was used to quantify the stiffness of IVKC gels formed in the presence of varying amount of H2O2 in PBS. Elastic modulus, G′, was plotted against angular frequency, ω (FIG. 45). As already mentioned in FIG. 41, the G′ value increased tremendously after crosslinking with 0.06% H2O2 in PBS. Further increasing the amount of H2O2 increased the G′ values even more. For instance, gels cross-linked completely with 0.2% H2O2 in PBS achieved a G′ value of nearly 1 MPa. This level of stiffness was not achieved before. Hereafter, IVKC gels will be prepared in the presence of 0.2% H2O2 in PBS. Data here was reported as average of 4 samples±standard deviation.
Rheology: The rheological properties of casted gels were measured with an ARES-G2 (TA Instruments, USA) using the oscillation method. Frequency-sweep studies were performed with ω=0-100 rad/s at strain, γ=0.1%. The gel stiffness was represented by plotting G′ against ω. Amplitude-sweep studies were performed beforehand at 1 Hz with γ=0-100%. The LVE limit of the gel was defined as the value of γ when G′ first dropped below 90% of the average initial value.
The rheological properties of casted gels were measured with an ARES-G2 (TA Instruments, USA) using the oscillation method. Frequency-sweep studies were performed with ω=0-100 rad/s at strain, γ=0.1%. The gel stiffness was represented by plotting G′ against ω. […]

Data set [4] in a line: Extent of crosslinking of IVKC by UPLC. Particulars: 24 hours. It is filed as physicochemical. On the procedure:
The crosslinking density of IVKC could be further modulated with H2O2 content. Ultra performance liquid chromatography (UPLC) was used to study the extent of crosslinking in IVKC after oxidation with varying amount of H2O2 in PBS for 24 hours. […] At 0.2% H2O2 in PBS for instance, IVKC was 100% crosslinked and none of the monomers remained.
The crosslinking density of IVKC can be modulated with H2O2 content. Ultra performance liquid chromatography (UPLC) was used to study the extent of crosslinking in IVKC after oxidation with varying amount of H2O2 in PBS for 24 hours (FIG. 43). In the absence of H2O2, IVKC remained mostly as monomers (>96%). […] At 0.2% H2O2 in PBS for instance, IVKC was 100% cross-linked and none of the monomers remained.
The crosslinking density of Ac-IVKC was modulated by varying the concentration of H2O2 (0-0.2%). The amount of monomeric (retention time-2.40 mins) and dimeric (˜2.67 mins) species were then quantified with ultra-performance liquid chromatography (UPLC) after incubation in the various H2O2 concentration for 24 hours at room temp (FIG. 43).

Data set [5] concerns Human corneal endothelial cells (HCEC). As to the kind of experiment: Biocompatibility of cross-linked IVKC gels, calcein staining. It is filed as cell-based. The note with it: gels cross-linked with 0.2% H2O2 in PBS for 24 hours and purified. Here is the method: To test the biocompatibility of cross-linked IVKC gels, a sensitive primary cell type was seeded onto the gels. IVKC gels were cross-linked with 0.2% H2O2 in PBS for 24 hours and excess H2O2 was purified from the gel using a dialysis-inspired method (as described in WO 2014/116187).
To test the biocompatibility of cross-linked IVKC gels, a sensitive primary cell type was seeded onto the gels. IVKC gels were cross-linked with 0.2% H2O2 in PBS for 24 hours and excess H2O2 was purified from the gel using a dialysis-inspired method reported previously, see e.g. WO 2014/116187. Human corneal endothelial cells (HCEC, a kind gift from Singapore Eye Research Institute) freshly derived from human donor corneas were then seeded onto the gel and maintained in culture.

The nature of data set [6]: Water soak of casted gels (shape retention / degradation). It counts as physicochemical. Particulars: not oxidised, 24 hours of water soak. On the procedure:
Peptide was dissolved in 200 μL of water+/−H2O2 and filled into custom-made hollow ring casts (diameter ˜1 cm). The ring ends were sealed with parafilm to minimise evaporation and the cast was kept at 25° C. for 22 hours before further manipulations.
LK6 or LK6C gels were first casted and then soaked in water for various durations. […] These observations are also supported by rheological measurements (FIG. 28). Therefore, the strategy of disulfide crosslinking has increased the resistance of the gel to degradation and has made it possible to use the gel at a lower concentration compared to previous formulations. This, in turn, will translate into significant cost savings.

Data set [7] is described as follows: Concentration needed for gelation. It is filed as physicochemical. Here is the method: FIG. 18A illustrates the determination of a suitable gelation concentration with the LK6 control peptide sequence. A working concentration was established that was suitably low so as to save on material during testing but yet, capable of forming gels strong enough to be manipulated. LK6 gels were therefore casted at different concentrations and their stiffness was measured (average±s.d. of triplicates). As expected, G′ values increased with peptide concentration and it was determined that a working concentration of 12 mM afforded gels with sufficient mechanical integrity to withstand handling.
The present invention as defined above offers significant improvements in material properties such as stiffness, elasticity and resistance of the gel to degradation compared to previous disclosures—ultra-small peptide-based and peptide/polymer-based hydrogels. Reactive chemical groups are also introduced to the peptide fibers which allow the facile in-situ chemical conjugation of biological signals. Furthermore, compared to previous formulations, less material is now needed for gelation (e.g. 10 mg/ml LK6C instead of 25 mg/ml for LK6), which translates into significant cost savings and higher water contents. This class of material is suitable for biomedical applications, for example but not limited to, three-dimensional cell culture, tissue engineering, sensing and drug and gene delivery.

“Also recorded” adds a separate entry of the source. Ends that are not written are not given here. Peptide text beside a SMILES is read from it.

As to `CC[C@H](C)[C@H](NC(=O)[C@H](CC(C)C)NC(C)=O)C(=O)N[C@H](C(=O)N[C@@H](C)C(=O)NCC(=O)N[C@@H](CCCCN)C(=O)N[C@@H](CS)C(=O)O)C(C)C` [LK6C, LIVAGKC] (Ac-LIVAGKC-OH), the “% of thiols remaining” value is recorded as ~80% in [1] and ~50% in data set [2]. The skin sensitization entry in the data set with skins of guinea pigs was “no sensitization”. Moreover, the toxicity result in the data set on V79 is “no significant toxicity”.

As for Ac-IVKC, the “increase of stiffness after oxidative crosslinking” value in data set [3] (0.06% H2O2 in PBS) was “close to two orders”. The “stiffness, elastic modulus G'” value in data set [3] (gels crosslinked completely with 0.2% H2O2 in PBS) is recorded as ~1 MPa. The molecule also returned a crosslinked fraction in data set [4] (0.2% H2O2 in PBS) of 100%. Moreover, the monomer content in data set [4] (absence of H2O2, PBS) is listed as > 96%. The “duration cells remained viable (positive calcein staining)” value in [5] is “at least ten days”.

As to LIVAGK (L-form) [LK6], the “gel state after water soak” value in [6] is “did not survive; also recorded: completely degraded”. For the same molecule, the “concentration needed for gelation” value in data set [7] stood at 25000 µg/mL.

The record behind these values is patent US9687591B2, “Building stratified biomimetic tissues and organs using crosslinked ultrashort peptide hydrogel membranes” (Agency for Science, Technology and Research, priority 2010, dated 2017).
